{"source": "patent US20040157296A1", "about": "(HESKA, published 2004)", "binders": {"B1": {"name": "feline B7-2 protein expressed on L-pCMV-nFeB7-2999 recombinant L cells (PFeB7-2332) (ligand)", "chain": "VSSMKSQAYFNKTGELPCHFTNSQNISLDELVVFWQDQDKLVLYEIFRGKENPQNVHLKYKGRTSFDKDNWTLRLHNVQIKDKGTYHCFIHYKGPKGLVPMHQMSSDLSVLANFSQPEITVTSNRTENSGIINLTCSSIQGYPEPKEMYFQLNTENSTTKYDTVMKKSQNNVTELYNVSISLPFSVPEAHNVSVFCALKLETLEMLLSLPFNIDAQPKDKDPEQGHFLWIAAVLVMFVVFCGMVSFKTLRKRKKKQPGPSHECETIKRERKESKQTNERVPYHVPERSDEAQCINILKTASGDKSTTHF", "notes": "also called PFeB7-2309 (mature)"}}, "target": "T1, Human CTLA4 Fc chimeric protein (human, UniProt P16410 37-162, limits assumed)", "T1 construct": "Bought from R&D Systems; Used at about 20 ug/ml; also called recombinant CTLA4 protein; not shown: human IgG Fc (detected with mouse anti human IgG Fc FITC)", "T1 sequence (looked up)": "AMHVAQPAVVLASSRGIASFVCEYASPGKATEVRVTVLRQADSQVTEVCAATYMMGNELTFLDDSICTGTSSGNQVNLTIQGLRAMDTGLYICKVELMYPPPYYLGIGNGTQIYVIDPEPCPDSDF", "assay": "flow cytometry on L cell transfectants", "experimental": "Recombinant cells L-pCMV-nFeB7-2₉₉₉, and L-pCMV-nFeB7-1₈₇₉, produced as described in Example 8, were tested for surface expression of feline B7-1 or B7-2 by determining if human CTLA4 will bind. Briefly, 1×10⁵ (per condition) L-pCMV-nFeB7-2₉₉₉ or L-pCMV-nFeB7-1₈₇₉ cells or, as a negative control, L cells transfected with the empty pCMV vector and the PMLBKTK plasmid (L-CMV) were incubated in phosphate buffered saline (PBS) containing 30% fetal bovine serum (FBS) for about 30 min on ice. The cells were then spun down and treated with the following:\nHuman CTLA4 Fc chimeric protein, available from R&D systems, Minneapolis, Minn., was used at about 20 μg/ml. Mouse anti human IgG Fe FITC, available from Sigma, was used at about 65 μg/ml. These reagents were diluted in PBS/5% FBS. All incubations were performed in about 100 μl for about 1 hr on ice with 3 washes of PBS/5% FBS in between each incubation. Cells were then analyzed on a flow cytometer (MoFlow Desk Top System, Cytomation, Ft Collins, Colo.) with the fluorescein gate set at 10¹."}
{"binder": "B1", "values": [{"measurement": "binding result", "result": "binds"}]}
